Literature values, collected in paper PMC4896244.
pKd: −log10 of the molar value.

Molecular target: Connexin 43 CT (UniProt P23242)
Chain of UniProt P23242 (P23242 255-382): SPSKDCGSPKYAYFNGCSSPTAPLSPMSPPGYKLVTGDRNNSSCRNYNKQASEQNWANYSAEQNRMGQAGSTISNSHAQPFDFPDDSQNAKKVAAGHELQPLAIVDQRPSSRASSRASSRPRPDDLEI

pKd: 3.52
Substance: CIP75 UBA (from UniProt Q99NB8)
